According to PMC10289004:

How the values were obtained:
[1] = western blot, erythrocytes of LPS-injected mice; details: glycan gained; control: LPS + PBS
[2] = western blot, MEFs, 4h TSZ; details: glycan lost; control: TSZ alone
[3] = RIPK1 protein level, MEFs; details: glycan lost; control: untreated
[4] = RIPK1 protein level, HT-29 or HEK293; details: glycan lost; control: untreated / control knockdown

B1: RIPK1 (mouse): TMG (protein)
parent chain: MQPDMSLDNIKMASSDLLEKTDLDSGGFGKVSLCYHRSHGFVILKKVYTGPNRAEYNEVLLEEGKMMHRLRHSRVVKLLGIIIEEGNYSLVMEYMEKGNLMHVLKTQIDVPLSLKGRIIVEAIEGMCYLHDKGVIHKDLKPENILVDRDFHIKIADLGVASFKTWSKLTKEKDNKQKEVSSTTKKNNGGTLYYMAPEHLNDINAKPTEKSDVYSFGIVLWAIFAKKEPYENVICTEQFVICIKSGNRPNVEEILEYCPREIISLMERCWQAIPEDRPTFLGIEEEFRPFYLSHFEEYVEEDVASLKKEYPDQSPVLQRMFSLQHDCVPLPPSRSNSEQPGSLHSSQGLQMGPVEESWFSSSPEYPQDENDRSVQAKLQEEASYHAFGIFAEKQTKPQPRQNEAYNREEERKRRVSHDPFAQQRARENIKSAGARGHSDPSTTSRGIAVQQLSWPATQTVWNNGLYNQHGFGTTGTGVWYPPNLSQMYSTYKTPVPETNIPGSTPTMPYFSGPVADDLIKYTIFNSSGIQIGNHNYMDVGLNSQPPNNTCKEESTSRHQAIFDNTTSLTDEHLNPIRENLGRQWKNCARKLGFTESQIDEIDHDYERDGLKEKVYQMLQKWLMREGTKGATVGKLAQALHQCCRIDLLNHLIRASQS
[1]
  other: RIPK1 Ser166 phosphorylation: decreases

B2: RIPK1 (mouse): OSMI-4 (protein)
parent chain: MQPDMSLDNIKMASSDLLEKTDLDSGGFGKVSLCYHRSHGFVILKKVYTGPNRAEYNEVLLEEGKMMHRLRHSRVVKLLGIIIEEGNYSLVMEYMEKGNLMHVLKTQIDVPLSLKGRIIVEAIEGMCYLHDKGVIHKDLKPENILVDRDFHIKIADLGVASFKTWSKLTKEKDNKQKEVSSTTKKNNGGTLYYMAPEHLNDINAKPTEKSDVYSFGIVLWAIFAKKEPYENVICTEQFVICIKSGNRPNVEEILEYCPREIISLMERCWQAIPEDRPTFLGIEEEFRPFYLSHFEEYVEEDVASLKKEYPDQSPVLQRMFSLQHDCVPLPPSRSNSEQPGSLHSSQGLQMGPVEESWFSSSPEYPQDENDRSVQAKLQEEASYHAFGIFAEKQTKPQPRQNEAYNREEERKRRVSHDPFAQQRARENIKSAGARGHSDPSTTSRGIAVQQLSWPATQTVWNNGLYNQHGFGTTGTGVWYPPNLSQMYSTYKTPVPETNIPGSTPTMPYFSGPVADDLIKYTIFNSSGIQIGNHNYMDVGLNSQPPNNTCKEESTSRHQAIFDNTTSLTDEHLNPIRENLGRQWKNCARKLGFTESQIDEIDHDYERDGLKEKVYQMLQKWLMREGTKGATVGKLAQALHQCCRIDLLNHLIRASQS
[2]
  other: RIPK1 Ser166 phosphorylation: increases
[3]
  expression_or_secretion: no change

B3: RIPK1 (hRIPK1): OGT knockdown (protein)
parent chain: MQPDMSLNVIKMKSSDFLESAELDSGGFGKVSLCFHRTQGLMIMKTVYKGPNCIEHNEALLEEAKMMNRLRHSRVVKLLGVIIEEGKYSLVMEYMEKGNLMHVLKAEMSTPLSVKGRIILEIIEGMCYLHGKGVIHKDLKPENILVDNDFHIKIADLGLASFKMWSKLNNEEHNELREVDGTAKKNGGTLYYMAPEHLNDVNAKPTEKSDVYSFAVVLWAIFANKEPYENAICEQQLIMCIKSGNRPDVDDITEYCPREIISLMKLCWEANPEARPTFPGIEEKFRPFYLSQLEESVEEDVKSLKKEYSNENAVVKRMQSLQLDCVAVPSSRSNSATEQPGSLHSSQGLGMGPVEESWFAPSLEHPQEENEPSLQSKLQDEANYHLYGSRMDRQTKQQPRQNVAYNREEERRRRVSHDPFAQQRPYENFQNTEGKGTAYSSAASHGNAVHQPSGLTSQPQVLYQNNGLYSSHGFGTRPLDPGTAGPRVWYRPIPSHMPSLHNIPVPETNYLGNTPTMPFSSLPPTDESIKYTIYNSTGIQIGAYNYMEIGGTSSSLLDSTNTNFKEEPAAKYQAIFDNTTSLTDKHLDPIRENLGKHWKNCARKLGFTQSQIDEIDHDYERDGLKEKVYQMLQKWVMREGIKGATVGKLAQALHQCSRIDLLSSLIYVSQN
[4]
  expression_or_secretion: no change
